Reference: publication PMC4228062

Molecular target: recombinant galectin-7 R74S (human)
Assay: native gel or EMSA; recombinant gal-7 (wild type or R74S) on a native gel, detected by immunoblot; monomeric and dimeric forms

stoichiometry N: 2
Substance: recombinant galectin-7 R74S (natural protein)
